In US20240228562A1, “NOVEL LIPOCALIN MUTEINS SPECIFIC FOR CONNECTIVE TISSUE GROWTH FACTOR (CTGF)” (PIERIS PHARMACEUTICALS GMBH, priority 2021, published 2024):

Columns and labels:
CTGF = target: T1, CTGF (Homo sapiens, UniProt P29279); assay: Specificity ELISA (CCN proteins), human CTGF; type: binding; conditions: coated 1 μg/ml, muteins from 1000 nM
T1 sequence (P29279 27-349): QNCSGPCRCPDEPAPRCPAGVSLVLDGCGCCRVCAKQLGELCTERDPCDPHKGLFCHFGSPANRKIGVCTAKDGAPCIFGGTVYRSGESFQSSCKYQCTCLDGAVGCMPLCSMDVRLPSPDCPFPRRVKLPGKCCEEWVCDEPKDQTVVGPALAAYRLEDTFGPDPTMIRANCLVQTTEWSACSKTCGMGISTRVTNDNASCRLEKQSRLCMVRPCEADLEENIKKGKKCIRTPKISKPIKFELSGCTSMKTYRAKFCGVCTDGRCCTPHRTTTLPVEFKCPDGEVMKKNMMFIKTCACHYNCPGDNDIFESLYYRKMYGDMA
Experimental: (§1) Binding of muteins to closely related proteins of CTGF was tested by an ELISA assay. In detail, a 384-well plate suitable for fluorescence measurements (Greiner FLUOTRAC™ 600, black flat bottom, high-binding) was coated with 20 μl of human CTGF or the other members of the CCN protein family at a concentration of 1 μg/ml in PBS over night at 4° C. After washing with PBS with 0.05% Tween 20, wells were blocked with 100 μl blocking buffer containing 0.1% Tween 20 and 2% BSA (PBS-T/BSA) for 1 h at room temperature. 20 μl of serially diluted muteins starting at 1000 nM were incubated in PBS-T/BSA for 1 h at room temperature (RT).
(§2) The residual supernatants were discarded and 20 μl HRP-labeled anti-NGAL or anti-Strep-Tag antibody was added at a predetermined optimal concentration in PBS-T/BSA and incubated for 1 h at RT. After washing, 20 μl fluorogenic HRP substrate (QuantaBlu, Thermo) was added to each well, and the reaction was allowed to proceed for 2 to 60 minutes. The fluorescence intensity of every well on the plate was read using a fluorescence microplate reader (Tecan). When the signal for human CTGF approached saturation, the cross reactivity to the other proteins was assessed.

[1] = target: T2, Human CTGF with a human IgG1 Fc Tag (Homo sapiens, UniProt P29279, H83D); assay: SPR epitope analysis (simultaneous binding); conditions: SPR, mixed and injected simultaneously at 750 nM or 1000 nM
T2 construct: purchased Creative Biomart
T2 sequence (P29279 with tags, fused parts or gaps H83D): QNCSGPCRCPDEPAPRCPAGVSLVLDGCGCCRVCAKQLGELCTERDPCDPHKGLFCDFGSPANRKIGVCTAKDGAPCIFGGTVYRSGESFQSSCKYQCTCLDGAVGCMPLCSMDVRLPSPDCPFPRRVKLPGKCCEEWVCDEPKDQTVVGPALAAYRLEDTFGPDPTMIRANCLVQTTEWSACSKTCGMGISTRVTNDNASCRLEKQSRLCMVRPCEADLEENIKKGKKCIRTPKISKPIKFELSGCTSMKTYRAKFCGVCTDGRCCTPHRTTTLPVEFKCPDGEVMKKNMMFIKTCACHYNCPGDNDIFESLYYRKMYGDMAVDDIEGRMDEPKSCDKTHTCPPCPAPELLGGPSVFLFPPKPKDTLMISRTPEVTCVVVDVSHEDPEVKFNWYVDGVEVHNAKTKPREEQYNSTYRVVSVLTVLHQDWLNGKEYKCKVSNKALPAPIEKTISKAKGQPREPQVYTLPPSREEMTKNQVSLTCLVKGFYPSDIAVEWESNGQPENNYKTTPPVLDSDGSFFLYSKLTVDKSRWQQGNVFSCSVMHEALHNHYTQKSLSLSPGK
Experimental: Surface plasmon resonance (SPR) was used to analyze the epitopes and determine simultaneous binding of different lipocalin muteins. Human CTGF with a human IgG1 Fc Tag was directly immobilized to a CM5 Chip (Creative Biomart, 10 μg/mL in 10 mM sodium acetate pH 4.5) until an immobilization level of 470-630 resonance units was achieved. The reference channel was activated/deactivated. […] As control, single lipocalin muteins were injected and the resulting signal of single and mixtures was compared at the end of the injection. The chip was regenerated with 3 M MgCl2 and Glycine-HCl pH1.5 for each 60 s at a flowrate of 15 μL/min.
“Yes” means simultaneous binding is possible, “no” stands for same or overlapping epitope, “n.t.” stands for not tested.

[2] = Thermal stability assessment by nanoDSC; type: physicochemical; conditions: 1 mg/mL in PBS, scan 25-100° C. at 1° C./min, major transition
Outline: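 CTGF-specific lipocalin muteins at 1 mg/mL in PBS scanned from 25 to 100° C at 1° C/min by capillary nano-DSC. Where several transitions occur, the Tm of the major unfolding event is reported, along with onset temperature. Some muteins were expressed in E. coli, others in CHO cells.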

huNOV = target: T3, huNOV (Homo sapiens, UniProt P48745); assay: Specificity ELISA (CCN proteins), huNOV; type: binding; conditions: coated 1 μg/ml; assessed when human CTGF signal approached saturation
T3 sequence (P48745 32-357): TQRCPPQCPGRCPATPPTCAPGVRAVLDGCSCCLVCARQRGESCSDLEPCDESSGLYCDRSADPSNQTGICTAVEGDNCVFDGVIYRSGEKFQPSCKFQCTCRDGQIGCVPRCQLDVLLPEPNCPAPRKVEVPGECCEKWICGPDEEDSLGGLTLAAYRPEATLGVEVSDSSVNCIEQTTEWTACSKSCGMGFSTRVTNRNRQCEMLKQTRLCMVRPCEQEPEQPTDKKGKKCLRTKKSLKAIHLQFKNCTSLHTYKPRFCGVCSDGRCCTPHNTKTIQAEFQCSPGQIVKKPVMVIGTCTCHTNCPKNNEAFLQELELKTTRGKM
Experimental: as §1, §2

huWISP-1 = target: T4, huWISP-1 (Homo sapiens, UniProt O95388); assay: Specificity ELISA (CCN proteins), huWISP-1; type: binding; conditions: coated 1 μg/ml; assessed when human CTGF signal approached saturation
T4 sequence (O95388 23-367): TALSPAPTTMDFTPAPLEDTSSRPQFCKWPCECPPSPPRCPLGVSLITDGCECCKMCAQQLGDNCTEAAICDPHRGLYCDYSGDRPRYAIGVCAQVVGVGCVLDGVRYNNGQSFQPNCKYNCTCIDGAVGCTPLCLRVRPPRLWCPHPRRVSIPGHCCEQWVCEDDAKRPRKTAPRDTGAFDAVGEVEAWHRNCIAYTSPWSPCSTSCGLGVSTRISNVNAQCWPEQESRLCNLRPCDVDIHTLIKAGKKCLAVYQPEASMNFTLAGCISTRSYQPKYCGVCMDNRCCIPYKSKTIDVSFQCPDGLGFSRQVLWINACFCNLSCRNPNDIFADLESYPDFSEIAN
Experimental: as §1, §2

huCYR61 = target: T5, huCYR61 (Homo sapiens, UniProt O00622); assay: Specificity ELISA (CCN proteins), huCYR61; type: binding; conditions: coated 1 μg/ml; assessed when human CTGF signal approached saturation
T5 sequence (O00622 25-381): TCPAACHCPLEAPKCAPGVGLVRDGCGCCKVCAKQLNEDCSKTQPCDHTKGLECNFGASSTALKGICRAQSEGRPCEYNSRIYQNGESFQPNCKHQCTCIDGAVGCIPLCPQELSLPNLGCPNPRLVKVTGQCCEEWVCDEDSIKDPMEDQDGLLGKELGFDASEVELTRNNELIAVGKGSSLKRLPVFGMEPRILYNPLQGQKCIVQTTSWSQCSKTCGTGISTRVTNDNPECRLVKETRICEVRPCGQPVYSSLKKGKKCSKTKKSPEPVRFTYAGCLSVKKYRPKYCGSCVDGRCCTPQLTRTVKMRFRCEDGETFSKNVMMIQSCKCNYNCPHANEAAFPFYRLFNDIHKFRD
Experimental: as §1, §2

ELISA binding to HUMAN CTGF (CTGF): Binding
Simultaneous binding with SEQ ID NO: 7 [1]: no
Simultaneous binding with SEQ ID NO: 9 [1]: no
Simultaneous binding with SEQ ID NO: 25 [1]: yes
Simultaneous binding with SEQ ID NO: 29 [1]: yes
Simultaneous binding with SEQ ID NO: 60 and 61 (control antibody) [1]: no
ELISA binding to huNOV (huNOV): No binding
ELISA binding to huWISP-1 (huWISP-1): No binding
ELISA binding to huCYR61 (huCYR61): No binding
B1: SEQ ID NO: 7: parent CTGF-binding hNGAL lipocalin mutein (protein)
chain: QDSTSDLIPAPPLSKVPLQQNFQDNQFHGKWYVVGLAGNYGLRTDKRPSKMFATIYELKEDKSYDVTSVRFEQERCHYTIRTFVPGSQPGEFTTGSIKSRPGQTSSLVRVVSTNYNQHAMVFFKSVIQNREYFAITLYGRTKELTSELKENFIRFSKSLGLPENHIVFPVPIDQCIDG
modifications: lipocalin mutein
TM [2]: 65 °C
